Measurements reported in patent US20250296996A1 (BROADWING BIO, published 2025).

What was measured:
[1] = target: T1, P60 (huANGPTL7-Fibrinogen-his) (human, UniProt O43827 129-343); test: BLI Octet HTX; IgG on AHC sensor; P60 at 200 nM; 1:1 fit
T1 construct: also called human ANGPTL7 fibrinogen domain; not shown: C-terminal short linker and His tag
T1 sequence: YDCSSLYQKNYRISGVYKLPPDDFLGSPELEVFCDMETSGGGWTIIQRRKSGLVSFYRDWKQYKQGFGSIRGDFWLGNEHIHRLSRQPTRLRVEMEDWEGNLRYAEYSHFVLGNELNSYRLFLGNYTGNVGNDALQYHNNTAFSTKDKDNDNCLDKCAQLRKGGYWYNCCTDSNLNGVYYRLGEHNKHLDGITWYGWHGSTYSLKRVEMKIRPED
Protocol: ANGPTL7 Antibody Kinetics. Experiments were conducted to determine the reactivity and dissociation constants (KD) of anti-ANGPTL7 antibodies with the human fibrinogen domain of the ANGPTL7 protein. Binding experiments were performed on Octet HTX (ForteBio) in 1×PBS, pH 7.4, 0.1 mg/ml BSA, 0.05% Sodium Azide, and 0.02 Tween 20. Antibodies at a concentration of 50 nM were loaded on pre-hydrated AHC biosensors for 5 min. The loaded sensors were dipped into monovalent P60 (huANGPTL7-Fibrinogen-his) at a concentration of 200 nM for 5 min association, followed by 10 min dissociation. […] Responses (nm) at the end of association were also determined (Table 2).

P62 (huANGPTL7-his) = target: T2, P62 (huANGPTL7-his) (human, UniProt O43827 27-346); test: BLI Octet HTX; IgG on AHC sensor; P62 0.343-250 nM; global 1:1 fit (token printed under the kon column)
T2 construct: not shown: C-terminal short linker and His tag
T2 chain: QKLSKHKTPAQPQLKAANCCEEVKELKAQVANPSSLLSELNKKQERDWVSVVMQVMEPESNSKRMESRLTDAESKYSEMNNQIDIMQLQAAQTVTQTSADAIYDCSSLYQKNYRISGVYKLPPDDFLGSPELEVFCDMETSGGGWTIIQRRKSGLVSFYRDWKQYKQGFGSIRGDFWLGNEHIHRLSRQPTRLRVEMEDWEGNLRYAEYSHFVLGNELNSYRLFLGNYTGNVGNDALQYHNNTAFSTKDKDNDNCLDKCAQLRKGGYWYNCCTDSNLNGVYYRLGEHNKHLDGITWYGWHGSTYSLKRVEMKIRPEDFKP
Protocol: Experiments were also conducted to determine the reactivity and dissociation constants (KD) of anti-ANGPTL7 antibodies with the human ANGPTL7-his protein. Binding experiments were performed on Octet HTX (ForteBio) in 1×PBS, pH 7.4, 0.1 mg/mi BSA, 0.05% Sodium Azide, and 0.02% Tween 20. To measure monovalent binding kinetics, antibodies at a concentration of 50 nM were loaded on pre-hydrated AHC biosensors for 5 min. The loaded sensors were dipped into monovalent P62 (huANGPTL7-his) at a range of concentration from 0.343-250 nM (a serial 3-fold dilution) for 5 min association, followed by 10 min dissociation.

[2] = target: T3, muANGPTL7-his (R&D Systems) (mouse, UniProt Q8R1Q3 22-337, limits assumed); test: BLI Octet HTX; IgG on AHC sensor; muANGPTL7-his at 200 nM; 1:1 fit
T3 construct: Bought protein; also called mouse ANGPTL7 protein
T3 sequence (looked up): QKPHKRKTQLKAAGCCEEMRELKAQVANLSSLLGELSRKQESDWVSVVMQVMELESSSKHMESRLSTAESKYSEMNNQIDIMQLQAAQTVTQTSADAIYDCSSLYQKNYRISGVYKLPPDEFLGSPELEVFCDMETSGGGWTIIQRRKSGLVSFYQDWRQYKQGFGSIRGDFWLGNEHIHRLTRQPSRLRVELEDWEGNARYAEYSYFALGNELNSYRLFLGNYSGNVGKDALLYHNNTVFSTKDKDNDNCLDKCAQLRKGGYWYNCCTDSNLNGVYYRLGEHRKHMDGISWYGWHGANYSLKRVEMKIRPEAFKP
Protocol: (§1) Experiments were also conducted to determine the reactivity and dissociation constants (KD) of anti-ANGPTL7 antibodies with the mouse ANGPTL7 protein. Binding experiments were performed on Octet HTX (ForteBio) in 1×PBS, pH 7.4, 0.1 mg/mi BSA, 0.05% Sodium Azide, and 0.02% Tween 20. Antibodies at a concentration of 50 nM were loaded on pre-hydrated AHC biosensors for 5 mA. The loaded sensors were dipped into monovalent muANGPTL7-his (R&D Systems) at a concentration of 200 nM for 5 min of association, followed by 10 min of dissociation. […] Responses (nm) at the end of association were also determined (Table 5).

[3] = target: T3, muANGPTL7-his (R&D Systems); test: BLI Octet HTX; IgG on AHC sensor; muANGPTL7-his at 200 nM
Protocol: as §1

P66 (rabbit ANGPTL7-his) = target: T4, P66 (rabbit ANGPTL7-his) (rabbit, UniProt G1T4P1 27-344); test: BLI Octet HTX; IgG on AHC sensor; P66 at 200 nM; 1:1 fit
T4 construct: mature; also called rabbit ANGPTL7 protein
T4 sequence: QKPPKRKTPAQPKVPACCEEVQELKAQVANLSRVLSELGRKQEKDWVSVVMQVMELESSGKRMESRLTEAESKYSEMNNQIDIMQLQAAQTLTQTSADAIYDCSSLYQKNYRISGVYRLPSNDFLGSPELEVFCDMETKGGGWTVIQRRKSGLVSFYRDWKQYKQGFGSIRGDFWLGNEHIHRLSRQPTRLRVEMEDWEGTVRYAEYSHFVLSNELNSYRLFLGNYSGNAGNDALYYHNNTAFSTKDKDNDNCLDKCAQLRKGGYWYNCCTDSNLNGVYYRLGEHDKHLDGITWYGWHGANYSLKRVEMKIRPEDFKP
Protocol: as §1, with “([…])” for “(KD)”, “rabbit” for “mouse”, “Rx PBS,” for “1×PBS,”, “min.” for “mA.”, “P66 (rabbit ANGPTL7-his)” for “muANGPTL7-his (R&D Systems)”, “6).” for “5).”

B1: ATX-P-437 (antibody, human IgG1, kappa, N297A, V domains shown)
VH: QITLKESGPTLVKPTQTLTLTCTFSGFSLSTSGVGVGWIRQPPGKALEWLALIYWNDDKQYSPSLKSRLTITKDTSKNQVVLTMTNMDPMDTATYYCAHNPDYGDFFDYWGQGTLVTVSS
VL: not shown
notes: Full chains (VH + hIgG1-Agly-Fc)
[1]
  Kd: 0.658 nM
  Response: 0.6 nm
P62 (huANGPTL7-his)
  binding result: binds
[2]
  Response: 0.02 nm
[3]
  binding result: no binding (tested: 200 nM)
P66 (rabbit ANGPTL7-his)
  Kd: 0.786 nM
  Response: 0.8 nm
